Laboratory results published in publication PMC10506485, “Human astrovirus capsid protein releases a membrane lytic peptide upon trypsin maturation” (Journal of Virology, 2023).

B1: HAstV8 VP90^28-782 (domain or fragment)
chain: QSRGRGRSVKITVNSHNKGRRQNGRNKYQSNQRVRKIVNKQLRKQGVTGPKPAICQTATATLGTIGSNTTGATEIEACILLNPVLVKDATGSTQFGPVQALGAQYSMWKLKYLNVRLTSMVGASAVNGTVVRISLNPTSTPSSTSWSGLGARKHLDVTVGKNAVFKLKPSDLGGPRDGWWLTNTNDNASDTLGPSIEIHTLGQTMSSYQNTQFTGGLFLVELSSAWCFTGYAANPNLVNLVKSTDKSVNVTFEGSAGTPLIMNVPEHSHFARTAVEHSSLSTSLSRAGGESSSDTVWQVLNTAVSAAELVTPPPFNWLVKGGWWFVKLIAGRARTGARRFYVYLSYQDALSNKPALCTGGVPASARQSNPVRTTLQFTQMNQPSLGHGATPMTFGRSIPEPGEQFRVLLTVGPPMAPNTANSQNWVNKTIVPPENQYTVKIGIDLEHYTTMQGFTPVESVSWYTADFQPSDEPSPIPGLYARVNNTKKADVYGVQQFKSSHTNNRHQITSVFLVRVTTSFQVINYTSYFIRGAESGSNVSNLKIRDQTYHTPLQFTQGKWYLLTSTVMHDGPTSSGWVWMNQELTNNIAYRVDPGMMYLITPPPAASQLYFELHTVLPQARSEEPETYVDAPLPEEPPIEEEETDSDFESTEDENDEVDRFDLHPSSESDDDDVENDRATLLSTLLNQGISVERATRITNGAFPTRAARVRRSVYNDLLVSGLSPGAAWSHACEQARRAGDNHDLQLSGSRDHAE
notes: Capsid polyprotein precursor VP90 of human astrovirus serotype 8 (strain Yuc8), residues 28-782, N-terminal truncation; The results name the vector pET28a, the methods pET-SUMOc with an N-terminal 6xHis-SUMO tag; Forms rod-shaped assemblies of about 20 nm diameter and variable length; also called aa28–782; source: E. coli (Rosetta 2 (DE3) or BL21), purified (HisTrap, Superdex-200 size exclusion)
B2: HAstV8 VP90^14-782 (domain or fragment)
chain: NNNGRSRSKSRARSQSRGRGRSVKITVNSHNKGRRQNGRNKYQSNQRVRKIVNKQLRKQGVTGPKPAICQTATATLGTIGSNTTGATEIEACILLNPVLVKDATGSTQFGPVQALGAQYSMWKLKYLNVRLTSMVGASAVNGTVVRISLNPTSTPSSTSWSGLGARKHLDVTVGKNAVFKLKPSDLGGPRDGWWLTNTNDNASDTLGPSIEIHTLGQTMSSYQNTQFTGGLFLVELSSAWCFTGYAANPNLVNLVKSTDKSVNVTFEGSAGTPLIMNVPEHSHFARTAVEHSSLSTSLSRAGGESSSDTVWQVLNTAVSAAELVTPPPFNWLVKGGWWFVKLIAGRARTGARRFYVYLSYQDALSNKPALCTGGVPASARQSNPVRTTLQFTQMNQPSLGHGATPMTFGRSIPEPGEQFRVLLTVGPPMAPNTANSQNWVNKTIVPPENQYTVKIGIDLEHYTTMQGFTPVESVSWYTADFQPSDEPSPIPGLYARVNNTKKADVYGVQQFKSSHTNNRHQITSVFLVRVTTSFQVINYTSYFIRGAESGSNVSNLKIRDQTYHTPLQFTQGKWYLLTSTVMHDGPTSSGWVWMNQELTNNIAYRVDPGMMYLITPPPAASQLYFELHTVLPQARSEEPETYVDAPLPEEPPIEEEETDSDFESTEDENDEVDRFDLHPSSESDDDDVENDRATLLSTLLNQGISVERATRITNGAFPTRAARVRRSVYNDLLVSGLSPGAAWSHACEQARRAGDNHDLQLSGSRDHAE
notes: Capsid polyprotein precursor VP90 of human astrovirus serotype 8 (strain Yuc8), residues 14-782, N-terminal truncation; The results name the vector pET28a, the methods pET-SUMOc with an N-terminal 6xHis-SUMO tag; also called aa14–782; source: E. coli (Rosetta 2 (DE3) or BL21), purified (HisTrap, Superdex size exclusion)
B3: HAstV8 VP90^72-782 (domain or fragment)
chain: QGVTGPKPAICQTATATLGTIGSNTTGATEIEACILLNPVLVKDATGSTQFGPVQALGAQYSMWKLKYLNVRLTSMVGASAVNGTVVRISLNPTSTPSSTSWSGLGARKHLDVTVGKNAVFKLKPSDLGGPRDGWWLTNTNDNASDTLGPSIEIHTLGQTMSSYQNTQFTGGLFLVELSSAWCFTGYAANPNLVNLVKSTDKSVNVTFEGSAGTPLIMNVPEHSHFARTAVEHSSLSTSLSRAGGESSSDTVWQVLNTAVSAAELVTPPPFNWLVKGGWWFVKLIAGRARTGARRFYVYLSYQDALSNKPALCTGGVPASARQSNPVRTTLQFTQMNQPSLGHGATPMTFGRSIPEPGEQFRVLLTVGPPMAPNTANSQNWVNKTIVPPENQYTVKIGIDLEHYTTMQGFTPVESVSWYTADFQPSDEPSPIPGLYARVNNTKKADVYGVQQFKSSHTNNRHQITSVFLVRVTTSFQVINYTSYFIRGAESGSNVSNLKIRDQTYHTPLQFTQGKWYLLTSTVMHDGPTSSGWVWMNQELTNNIAYRVDPGMMYLITPPPAASQLYFELHTVLPQARSEEPETYVDAPLPEEPPIEEEETDSDFESTEDENDEVDRFDLHPSSESDDDDVENDRATLLSTLLNQGISVERATRITNGAFPTRAARVRRSVYNDLLVSGLSPGAAWSHACEQARRAGDNHDLQLSGSRDHAE
notes: Capsid polyprotein precursor VP90 of human astrovirus serotype 8 (strain Yuc8), residues 72-782, N-terminal truncation; The results name the vector pET28a, the methods pET-SUMOc with an N-terminal 6xHis-SUMO tag; also called aa72–782; source: E. coli (Rosetta 2 (DE3) or BL21), purified (HisTrap, Superdex size exclusion)

Biological target: the molecule itself
Assay: SEC; Superdex-200 or Superdex-75 size exclusion column; 50 mM Tris-HCl pH 8.0, 150 mM NaCl, 1 mM NaN3; self-association judged from the elution profile

Protein | binding result | stoichiometry N
B1 | binds | –
B2 | binds | –
B3 | – | 2
